In the nanobody polyreactivity screen of Harvey et al. (2022):

Test: yeast display, Sf9 membrane polyspecificity reagent, FACS + sequencing; frameworks hold sequencing errors
Method in brief: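 A nanobody's polyreactivity label depends on the gate it was sorted from. Yeast display cells were stained with 10% biotinylated, detergent-solubilized Sf9 membrane reagent for 1 hour at 4 °C, enriched on streptavidin microbeads and sorted by FACS. The low and high (top ~1%) gates were set on anti-HA fluorescence for expression and streptavidin fluorescence for reagent binding.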

Sequence | polyreactivity (PSR sort gate)
QVQLVESGGGIVQAGGSLRLSCAASGRNFSRYAMGWYRQAPGKERELVAVISRSGADTYYADSVKGRFTISRDNAKNTVYLQMNSLKPEDTAVYYCNAYSARRPHPMGYDYWGEGTQVTVSS | high polyreactivity
QVQLVESGGGIVQAGGSLRLSCAASGRTFTYNAMGRYRQAPGKERELVAAITYRGGSTYYADSVKGRFTISRDNAKNTVYLQMNSLKPEDTAVYYCAARVSYYRYNTPHYYYWGQGTQVTVSS | high polyreactivity
QVQLVESGGGIVQAGGSLRLSCAASGRTFYYYAMGWYRQAPGKERELVASISWSGGSTYYADSVKGRFTISRDNAKNTVYLQMNSLKPEDTAVYYCNAQYHTYRWLYAVYLSGDYWGQGTQVTVSS | low polyreactivity
QVQLVESGGGIVQAGGSLRLSCAASGRTIYFNAMGWYRQAPGKERELVATISRSTGSTYYADSVKGRFTISRDNAKNTVYLQMNSLKPEYTAVYYCNATPWGYARMDYWGQGTQVTVSS | low polyreactivity
QVQLVESGGGIVQAGGSLRLSCAASGSIFDYYTKAWYRQAPGKEREMVAAISWSGGSTYYADSVKGRFTISRDNAKNTVYLQMYSLKPEDTAVYYCATRVRTRTGYQYYYWGQGTQVTVSS | high polyreactivity
QVQLVESGGGIVQAGGSLRLSCAASGSIFLYYAMGWYRQAPGNERQLVATINWSGGTTYYADSVKGRFTISRDNAKNTVYLQMNSLKPEDTAVYYCNKAKTAYRGQYDYWGQGTQVTVSS | high polyreactivity
QVQLVESGGGIVQAGGSLRLSCAASGSIFNIYAMGWYRQAPGKERELVAAIRWTGGSTYYADSVKGRFTISRDNAKNTVYLQMNILIPEDTAVYYCAADPWYPRGYYWGQGTQVTVSS | high polyreactivity
QVQLVESGGGIVQAGGSLRLSCAASGSIFRWNAMGWYRQAPGKESELVAAIRWSSGSTYYADSVKGRFTISRDNAKNTVYLQMNSLKPEDTAVYYCAASRATIKYPKREYWGQGTQVTVSS | high polyreactivity
QVQLVESGGGIVQAGGSLRLSCAASGSIFSFNAMGWYRQAPGKERELVAAISRGGSTYYADSVKGRFTISRDNAKNTVYLQMNSLKPEDTAVYYCAADIYGHSYSYYLGEYWGQGTQVTVSS | high polyreactivity
QVQLVESGGGIVQAGGSLRLSCAASGSIFSFYAMGWYRQAPGKERELVAAIDVSGGSTYYADSVKGRFTISRDNAKNSVYLQMNSLKPEDTAVYYCAKDVRDQYDYWGQGTQVTVSS | low polyreactivity
QVQLVESGGGIVQAGGSLRLSCAASGSIFSTNAMGWYRQAPWKERELVAAIDITNYADSVKGRFTISRDNAKNTVYLQMNSLKPEDTAVYYCNADTYSVVREGDYWGQGTQVTVSS | low polyreactivity
QVQLVESGGGIVQAGGSLRLSCAASGSIFTHYAMGWDRQAPGKERELVATISSTGSTDYADSVKGRFTISRDNAKNTVFLQINSLKPEDTAVYYCAAVSFYKTRATYYFWYDYWGQGTQVTVSS | low polyreactivity
QVQLVESGGGIVQAGGSLRLSCAASGSIFYAYAMGWYRQAPGKERELVASISRGVNTNYADSVKGRFTISRDNAKNTVYLQMNSLKPEDTAVYYCNARLRYGHGYGYWGQGTQVTVSS | low polyreactivity
QVQLVESGGGIVQAGGSLRLSCAASGSTFDYYAMGWYRQAPGKEMELVAGISASGGSTYYADSVKGRFTISRDNAKNTVYLQMNSLKPEDTAVYYWASYYKPPGYDYWGQGTQVTVSS | low polyreactivity
QVQLVESGGGIVQAGGSLRLSCAASGSTFEHNAMGWYRQAPGKEREFVAAITGSGGSTYYADSVKGRFTISRDNAKNTVYLQMTSLKPEDTAVYYCAADIQDGWYWWDIYDYWGQGTQVTVSS | low polyreactivity
QVQLVESGGGIVQAGGSLRLSCAASGSTFGVYAMGWYRQAPGKERDLVSVIRRGGGTDYADSVKGRFTISRDNAKNTVYLQMNSLNPEVTAVYYCAATVVRSGYLTLEMDYWGQGTQVTVSS | low polyreactivity
QVQLVESGGGIVQAGGSLRLSCAASGSTFLYYAMGWSRQAPGKEREFVAAISISGGSTYYADSVKGRFTISRDNAKNTVYLQMNSLKPEDTAVYYCAAEVGIVDYDYWGQGTQVTVSS | low polyreactivity
QVQLVESGGGIVQAGGSLRLSCAASGSTFNYNAMGWYRQAPGKERELVAAITRSGDSTYADSVKGRFTISRDNAKNTFYLQMNSLKPEYTAVYYCAKRYTHYSFRRFDYWGQGSQVTVSS | low polyreactivity
QVQLVESGGGIVQAGGSLRLSCAASGSTFTLYAMGWYRQAPGQERELVAAITSDDSTYYADSVKGRFTISRDNAKNTVYLQMNSLKPEDTAVYYCAADVYYGDYEMDYWGQGTQVTVSS | low polyreactivity
QVQLVESGGGIVQAGGSLRLSCAASGSTFYVNTMGWYRQAPGKERDLVAAISYTGGNTYYADSVKGRFTISRDNAKNTVYLQMNSLKPEDTAVYYCAARILYRGTGYPYRMNYWGQGTQVTVSS | high polyreactivity
QVQLVESGGGIVQAGGSLRLSCAASGSTFYVNVMGRYRQAPGKERELVAGITIRDGATYYADSVKGRFTISRDNAKITVYLQMNSLNPEDTAVYYCARAGDGEYKRDYWGQGTQVTVSS | low polyreactivity
QVQLVESGGGIVQAGGSLRLSCAASGSTYNLNALGWSRQAPGKERELVAAIDSGGRTNYADSVKGRFTISRDNAKNTVYVQMNSLKPEDTAVYYCAADVYAYPGSWYDYWGQGTQVTVSS | low polyreactivity

Sequence | polyreactivity (PSR sort gate)
QVQLVESGGGIVQAGGSLRLSCAASGYNFRSYVMGWYRQAPGKERELVAAISVSGGRTYYADSVKGRFTISRDNAKNTVYLQMNSLKPEDTAVYYCATDPYSYYWPSHMDYWGQGTQVTVSS | high polyreactivity
QVQLVESGGGIVQAGGSLRLSCAATGNTFRYYTMGWYRKAPGKERELVAAINYRGSRTYYADSVKGRFTISRDNAKNTVYLQINSLKPEDTAVYYCARAYNAGYRYRSDYWGQGTQVTVSS | high polyreactivity
QVQLVESGGGIVQAGGSLRLSCATSGRIFDNNPKGRYRQAPGKESEMVAAIDWRGGTTDYADSVKGRFTISRDNAKNTVYFQMKSLKPEDTAVYYSNARGLNYYGRTFNYWGQGTQVTVSS | low polyreactivity
QVQLVESGGGIVQAGGSLRLSCGASGSIFVTYTMGWYRQAPGKERELVAAITSDGRTYYADSVKGRFTISRDNAKNTVYLQMNCLKPEDTAVYYCAADSSGYYWFNYWGQGTQVTVSS | low polyreactivity
QVQLVESGGGIVQAGGSLRLSFAASGSTFAGYAMGLYREAPGKERELVATFTYSGGSTYYADSVKGRFSISRDNAKNTVYLQMNSLKPEDTAVYYCAKNASYLWGYEYWGQGTQVTVSS | low polyreactivity
QVQLVESGGGIVQAGGSLRLSSAASGLTFAYNTMGWYRQAPGIEREFVASISSSGGNTYYADSVKGRFTISRDNAKNTVYLQMHSLKPEDTAVYYCAAKKKYHYVATYKRFENWGQGTHVTVSS | low polyreactivity
QVQLVESGGGIVQAGGSLRLSSAASGRIFDTNAMGWYRQAPGKERELVAAITGRGGGTYYADSVKGRFTISRDNAKNTVYLQMNSLKPEDTAVYYCNAFAPIYRHYSWGSGLDYWGQGTLVTVSS | high polyreactivity
QVQLVESGGGIVQAGGSLRLSSAASGSIFYYYAKGWYRQAPGKERELVATINISDGSTYYADSVKGRFTISRDNAKNTVYLQMNSLKPEDTAVYYCAAYYYFLDYDYWGQGTQVTVSS | low polyreactivity
QVQLVESGGGIVQAGGSLRLTCAASGRIFYYYAMGWYRQAPGKEREFVAASSRSGGSTYYADSVKGRFTISRDNAKNTVYLQMNSLKPEDTAVYYCNAVRSYRGDFKYDWGQGTQVTVSS | high polyreactivity
QVQLVESGGGIVQAGGSLRLTCDASGFTFVINDMGRYRQARGKERELVADITSGGDTYYADSVKGRFTISRDNAKNSVYFHRNSLKPEDTAVYFCAADIYPDWIYLLYGYWGQGTQLTVSS | low polyreactivity
QVQLVESGGGIVQAGGSLRVSCAASGRTFYSSAMGWYRQAPGKERELVAAISWNGGSTYYADSVKGRFTISRDNAKNTVYLQMNSLNPEDTAVYYCAATYLLRGDAYYSWGQGTQVTVSS | high polyreactivity
QVQLVESGGGIVQAGGSLSLSCAASGRTFIRNAIGCYRQAPGKERELVAAINSGGITNYADSVKGRFTISRDNANNTVYLQMNSLKPEDTAVYYCNARQVLYGLYLRAYPYEYWGQGTQVTVSS | low polyreactivity
QVQLVESGGGIVQAGGSLSLSCAASGSTFSIYAMGWSRQATGTEREVVAAISGSGSRTYYADSVKGRFTISRDNEKNSVYLQMNMLKPEDTAVYYCAALGRHRDGFDFNYWGQGTQVTLSS | high polyreactivity
QVQLVESGGGIVQAGGTLRLSCAASGSTFFYYVMGWYRQAPGKERELVAAITSSGGGTYYADSVKGRFTISRDNAKNTVYLQMKSLKPEDTAVYYCAKPVWWRDYRHGGRFGYWGQGTQVTVSS | low polyreactivity
QVQLVESGGGIVQAGRSLRLSCAASGFTFYWYAMGWYRQAPGKERELVAAISWSGGSTYYADSVKGRFTISRDNETNTVYLQMYSLKPEDTAVYYCAADNYFFGDEDYWGQGTQVTVSS | high polyreactivity
QVQLVESGGGIVQAGRSLRLSCSASGFIFAIKAMGWYRQAPGKERELVAAITGGGSTSYADSVKGRFTISRDNAKNTVYLQMNSLKPEDTAVYYCATDRLTYTKYGYWGQGTQVTVSS | low polyreactivity
QVQLVESGGGIVQAGRSLRLTCAASGITFKAYTMGWYRQAPGKERELVATISRGGRTYADSVKGRFTISRDNAKNTVYLQINSLKPEDTAVYYCAADKYWAQNDYWGQGTQVTVSS | low polyreactivity
QVQLVESGGGIVQAVGSLRLSCAASGFTLERYAMVWYRPAPGKERELVAAITQSGVSTYYADSVKGRFTISRDNAKNTVYLQMNSLKPEDTAVYYCNALRIYHHYEYDYWGQGTQVTVSS | high polyreactivity
QVQLVESGGGIVQEGRSLSISCAASGSTFYTYAMGWYRPAPGKERELVAAITQSGGRTYYADSVKGRFTISRDNANNTVYLEMNSLKPEDTAVDYCNAPPYTGYDWGQGTQVSVSS | high polyreactivity
QVQLVESGGGKVKAGGSLRISCAASGRTYRYAMGWYRQAPGKERELVAAITSGGRTNYADSVKGRFTISRDNAKNTVYLQMNSLKPEDTAVYYCAAQWYTVITSWYGYWGQGTQVTVSS | low polyreactivity
QVQLVESGGGKVQAGGSLRLSCAAYGIIFYPYDMGWNRQSPAKERELVAAISIGGGSTYYADSVKGRFTISRDNAKNTVYLQMNSLKPEDNAVYYCAAGTPYGILGYYYWGQGSQVTVSS | low polyreactivity
